This is an account of results in US20190338002A1 (Pieris, published 2019).

Test [1] addresses T1, human alpha CGRP (SEQ ID NO: 80) (human, not fully specified).
T1 construct: also called human αCGRP; hαCGRP
T1 peptide: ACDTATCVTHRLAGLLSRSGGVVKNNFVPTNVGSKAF
Description: SPR as in Example 5. How it is done:
(§1) The Biotin CAPture Kit (GE Healthcare) was used to immobilize biotinylated lipocalin muteins to a chip surface. Muteins were biotinylated using standard NHS chemistry. Undiluted Biotin CAPture Reagent (streptavidin conjugated with ss-DNA oligo) was captured on a Sensor Chip CAP with the pre-immobilized complementary ss-DNA oligo. Thereafter, biotinylated muteins at 1 μg/mL were applied for 300 s at a flow rate of 5 μL/min.
(§2) CGRP species were applied in three concentrations of 30 nM, 3 nM and 0.3 nM at a flow rate of 30 μL/min or in a single concentration of 25 nM per cycle as shown in FIG. 2. The dilutions were injected with association times of 180 s and dissociation times of 5400 sec to obtain ka and kd information. Regeneration of the chip surface was achieved by injecting 6 M Guanidinium-HCl+0.25 M NaOH (120 s) with a flow rate of 10 μL/min. Injection of regeneration solutions was followed by an extra wash step with HBS-EP+(1×; BR-1006-69; GE Healthcare) running buffer and a stabilization period of 120 s.

In test [2] the target is T2, human beta CGRP (SEQ ID NO: 81) (human, not fully specified).
T2 construct: also called human βCGRP; hβCGRP
T2 peptide: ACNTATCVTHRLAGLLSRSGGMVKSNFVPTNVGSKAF
The test is described as follows: SPR as in Example 5. How it is done: as §1, §2

Test [3] concerns the target T1, human alpha CGRP (SEQ ID NO: 80). The test is described as follows: cell-based or functional assay.
The target in test [4] is T2, human beta CGRP (SEQ ID NO: 81). The test is described as follows: cell-based or functional assay.

B1: cysteine-free lipocalin mutein SEQ ID NO: 29 (designed binder)
chain: QDSTSDLIPAPPLSKVPLQQNFQDNQFQGKWYVVGRAGNDVLREDKDPEKMEATIYELKEDKSYNVTDVGFVQKRLMYVTHTFVPGSQPGEFTLGNIESYPGVTSALVRVVSTDYNQHAMVFVKLVKQNRELFEITLYGRTKELTSELKENFIRFSKSLGLPENHIVFPVPIDQIDGSAWSHPQFEK
notes: biotinylated by NHS chemistry for capture in SPR
As usually defined, the Kd is the equilibrium constant for the complex coming apart. For B1, the values for the Kd in test [1] and in test [2] were 0.065 nM and 0.05 nM, respectively. The “cAMP assay IC50, SK-N-MC cells” value in test [3] was found to be 0.14 nM; in test [4] it was 0.91 nM.

B2: cysteine-free lipocalin mutein SEQ ID NO: 30 (designed binder)
chain: QDSTSDLIPAPPLSKVPLQQNFQDNQFQGKWYVVGRAGNDVLREDKDPEKMEATIYELKEDKSYNVTDVGFVQKRYMYVTHTFVPGSQPGEFTLGNIESYPGVTSALVRVVSTDYNQHAMVFVKLVKQNRELFEITLYGRTKELTSELKENFIRFSKSLGLPENHIVFPVPIDQIDGSAWSHPQFEK
notes: as for B1
Take B2: the Kd in test [1] stood at 0.109 nM; in test [2] it was 0.075 nM. The “cAMP assay IC50, SK-N-MC cells” value in test [3] was determined as 0.22 nM; in test [4], 1.32 nM.

B3: cysteine-free lipocalin mutein SEQ ID NO: 31 (designed binder)
chain: QDSTSDLIPAPPLSKVPLQQNFQDNQFQGKWYVVGWAGNTLLREDKDPIKMQAMIYELKEDKSYNVTWVYFADKKRNYHIETFVPGSQPGEFTLGTIKSYPGETPILVRVVSTNYNQHAMVFFKGVNQNREIFEIVLYGRTKELTNELKENFIRFSKSLGLPENHIVFPVPIDQFIDGSAWSHPQFEK
notes: as for B1
Turning to B3, the Kd came out at 0.033 nM in test [1] and 0.043 nM in test [2]. Further, the figures for the “cAMP assay IC50, SK-N-MC cells” value in test [3] and in test [4] were 0.19 nM and 1.64 nM, respectively.

B4: cysteine-free lipocalin mutein SEQ ID NO: 37 (designed binder)
chain: QDSTSDLIPAPPLSKVPLQQNFQDNQFQGKWYVVGWAGNTLLREDKDPIKMQAMIYELKEDKSYNVTWVYFADKKNNYHIETFVPGSQPGEFTLGTIKSYPGETPILVRVVSTNYNQHAMVFFKGVNQNREIFEIVLYGRTKELTNELKENFIRFSKSLGLPENHIVFPVPIDQLIDGSAWSHPQFEK
notes: as for B1
For the molecule B4, the Kd came out at 0.055 nM in test [1] and 0.023 nM in test [2]. For the same molecule, the “cAMP assay IC50, SK-N-MC cells” value was 0.16 nM in test [3] and 0.77 nM in test [4].

B5: cysteine-free lipocalin mutein SEQ ID NO: 32 (designed binder)
chain: QDSTSDLIPAPPLSKVPLQQNFQDNQFQGKWYVVGWAGNTLLREDKDPIKMQAMIYELKEDKSYNVTWVYFADKKMNYHIETFVPGSQPGEFTLGTIKSYPGETPILVRVVSTNYNQHAMVFFKGVNQNREIFEIVLYGRTKELTNELKENFIRFSKSLGLPENHIVFPVPIDQYIDGSAWSHPQFEK
notes: as for B1
In the case of B5, the Kd in test [1] was 0.034 nM; in test [2], 0.021 nM. Moreover, the “cAMP assay IC50, SK-N-MC cells” value in test [3] was 0.17 nM; in test [4], 0.26 nM.

B6: cysteine-free lipocalin mutein SEQ ID NO: 35 (designed binder)
chain: QDSTSDLIPAPPLSKVPLQQNFQDNQFQGKWYVVGWAGNTLLREDKDPIKMQAMIYELKEDKSYNVTWVYFADKKVNYHIETFVPGSQPGEFTLGTIKSYPGETPILVRVVSTNYNQHAMVFFKGVNQNREIFEIVLYGRTKELTNELKENFIRFSKSLGLPENHIVFPVPIDQYIDGSAWSHPQFEK
notes: as for B1
Turning to B6, the Kd is 0.045 nM in test [1] and 0.017 nM in test [2]. Besides, the “cAMP assay IC50, SK-N-MC cells” value worked out at 0.15 nM in test [3] and 0.27 nM in test [4].

B7: cysteine-free lipocalin mutein SEQ ID NO: 33 (designed binder)
chain: QDSTSDLIPAPPLSKVPLQQNFQDNQFQGKWYVVGWAGNTLLREDKDPIKMQAMIYELKEDKSYNVTWVYFADKKLNYHIETFVPGSQPGEFTLGTIKSYPGETPILVRVVSTNYNQHAMVFFKGVNQNREIFEIVLYGRTKELTNELKENFIRFSKSLGLPENHIVFPVPIDQWIDGSAWSHPQFEK
notes: as for B1
B7: the results for the Kd in test [1] and in test [2] were 0.034 nM and 0.018 nM, respectively. The “cAMP assay IC50, SK-N-MC cells” value in test [3] was 0.14 nM; in test [4] it was 0.24 nM.

B8: cysteine-free lipocalin mutein SEQ ID NO: 38 (designed binder)
chain: QDSTSDLIPAPPLSKVPLQQNFQDNQFQGKWYVVGWAGNTLLREDKDPIKMQAMIYELKEDKSYNVTWVYFADKKRNYHIETFVPGSQPGEFTLGTIKSYPGETPILVRVVSTNYNQHAMVFFKGVNQNREIFEIVLYGRTKELTNELKENFIRFSKSLGLPENHIVFPVPIDQVIDGSAWSHPQFEK
notes: as for B1
For B8, the Kd in test [1] was determined as 0.059 nM; in test [2] it was 0.026 nM. Also, the “cAMP assay IC50, SK-N-MC cells” value in test [3] came out at 0.21 nM; in test [4], 3.16 nM.

B9: cysteine-free lipocalin mutein SEQ ID NO: 34 (designed binder)
chain: QDSTSDLIPAPPLSKVPLQQNFQDNQFQGKWYVVGWAGNTLLREDKDPIKMQAMIYELKEDKSYNVTWVYFADKKINYHIETFVPGSQPGEFTLGTIKSYPGETPILVRVVSTNYNQHAMVFFKGVNQNREIFEIVLYGRTKELTNELKENFIRFSKSLGLPENHIVFPVPIDQEIDGSAWSHPQFEK
notes: as for B1
On to B9, for which the values for the dissociation constant Kd in test [1] and in test [2] were 0.041 nM and 0.025 nM, respectively. In addition, the “cAMP assay IC50, SK-N-MC cells” value was found to be 0.12 nM in test [3] and 0.29 nM in test [4].

B10: cysteine-free lipocalin mutein SEQ ID NO: 40 (designed binder)
chain: QDSTSDLIPAPPLSKVPLQQNFQDNQFQGKWYVVGWAGNTLLREDKDPIKMQAMIYELKEDKSYNVTWVYFADKKFNYHIETFVPGSQPGEFTLGTIKSYPGETPILVRVVSTNYNQHAMVFFKGVNQNREIFEIVLYGRTKELTNELKENFIRFSKSLGLPENHIVFPVPIDQDIDGSAWSHPQFEK
notes: as for B1
On to B10, for which the values for the equilibrium dissociation constant (Kd) in test [1] and in test [2] were 0.07 nM and 0.023 nM, respectively. Besides, the “cAMP assay IC50, SK-N-MC cells” value in test [3] amounted to 0.18 nM; in test [4] it was 0.42 nM.

B11: cysteine-free lipocalin mutein SEQ ID NO: 39 (designed binder)
chain: QDSTSDLIPAPPLSKVPLQQNFQDNQFQGKWYVVGWAGNTLLREDKDPIKMQAMIYELKEDKSYNVTWVYFADKKKNYHIETFVPGSQPGEFTLGTIKSYPGETPILVRVVSTNYNQHAMVFFKGVNQNREIFEIVLYGRTKELTNELKENFIRFSKSLGLPENHIVFPVPIDQDIDGSAWSHPQFEK
notes: as for B1
Take B11: the Kd in test [1] turned out to be 0.062 nM; in test [2] it was 0.034 nM. Besides, the figures for the “cAMP assay IC50, SK-N-MC cells” value in test [3] and in test [4] were 0.21 nM and 1.03 nM, respectively.

B12: cysteine-free lipocalin mutein SEQ ID NO: 36 (designed binder)
chain: QDSTSDLIPAPPLSKVPLQQNFQDNQFQGKWYVVGWAGNTLLREDKDPIKMQAMIYELKEDKSYNVTWVYFADKKRNYHIETFVPGSQPGEFTLGTIKSYPGETPILVRVVSTNYNQHAMVFFKGVNQNREIFEIVLYGRTKELTNELKENFIRFSKSLGLPENHIVFPVPIDQWIDGSAWSHPQFEK
notes: as for B1
Consider B12, for which the Kd in test [1] came out at 0.046 nM; in test [2], 0.022 nM. Also, the “cAMP assay IC50, SK-N-MC cells” value came out at 0.25 nM in test [3] and 0.81 nM in test [4].
